Reference: publication PMC9638925 (Nucleic Acids Research, 2022)

Target: T1, USP15 (275–981) (human, UniProt Q9Y4E8 275-981)
T1 sequence: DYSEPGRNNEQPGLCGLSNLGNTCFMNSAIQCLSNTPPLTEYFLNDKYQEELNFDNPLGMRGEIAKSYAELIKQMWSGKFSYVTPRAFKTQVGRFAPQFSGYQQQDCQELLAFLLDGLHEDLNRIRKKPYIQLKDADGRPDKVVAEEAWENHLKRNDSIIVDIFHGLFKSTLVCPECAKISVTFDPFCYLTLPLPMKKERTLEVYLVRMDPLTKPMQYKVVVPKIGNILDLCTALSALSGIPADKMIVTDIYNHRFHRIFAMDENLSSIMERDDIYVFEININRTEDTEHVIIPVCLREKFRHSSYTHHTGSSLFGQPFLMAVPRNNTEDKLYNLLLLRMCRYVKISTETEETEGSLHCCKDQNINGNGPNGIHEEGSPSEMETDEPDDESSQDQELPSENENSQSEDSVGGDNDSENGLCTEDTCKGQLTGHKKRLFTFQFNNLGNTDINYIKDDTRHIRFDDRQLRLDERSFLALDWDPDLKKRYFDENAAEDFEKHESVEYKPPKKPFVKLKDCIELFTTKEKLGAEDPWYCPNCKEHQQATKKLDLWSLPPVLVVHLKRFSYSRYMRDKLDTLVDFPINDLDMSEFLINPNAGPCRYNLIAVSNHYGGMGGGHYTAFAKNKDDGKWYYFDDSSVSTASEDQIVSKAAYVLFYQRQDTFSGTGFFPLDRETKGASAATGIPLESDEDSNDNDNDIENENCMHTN
Assay: pull-down

B1: GST–cGAS (161–522) (domain or fragment)
chain: GASKLRAVLEKLKLSRDDISTAAGMVKGVVDHLLLRLKCDSAFRGVGLLNTGSYYEHVKISAPNEFDVMFKLEVPRIQLEEYSNTRAYYFVKFKRNPKENPLSQFLEGEILSASKMLSKFRKIIKEEINDIKDTDVIMKRKRGGSPAVTLLISEKISVDITLALESKSSWPASTQEGLRIQNWLSAKVRKQLRLKPFYLVPKHAKEGNGFQEETWRLSFSHIEKEILNNHGKSKTCCENKEEKCCRKDCLKLMKYLLEQLKERFKDKKHLDKFSSYHVKTAFFHVCTQNPQDSQWDRKDLGLCFDNCVTYFLQCLRTEKLENYFIPEFNLFSSNLIDKRSKEFLTKQIEYERNNEFPVFDEF
binding result: binds
